Laboratory results from US20250144194A1 (KAIMI BIOMEDICINE CHENGDU, published 2025).
Residue numbers refer to the chain shown, from its start.

T1: FcγRIIA protein (UniProt P12318 36-218, limits assumed)
T1 construct: also called hFcγRIIA
T1 sequence (looked up): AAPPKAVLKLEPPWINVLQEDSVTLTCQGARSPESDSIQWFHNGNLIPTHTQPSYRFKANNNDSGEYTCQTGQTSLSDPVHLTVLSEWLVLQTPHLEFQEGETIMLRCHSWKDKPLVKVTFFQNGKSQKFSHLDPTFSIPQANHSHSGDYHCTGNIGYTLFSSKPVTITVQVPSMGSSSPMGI

B1: Seq2-Sf9 (other)
chain: VDKKIVPADCGCAPCICAVPEVSSVFIFPPKPKDVLTITLTPKVTCVVVDISKDDPEVQFSWFVDDVEVHTAQTQPREEQFNSTFRSVSELPIMHQDWLNGKEFKCRVNSAAFPAPIEKTISKTKGRPKAPQVYTIPPPKEQMAKDKVSLTCMITDFFPEDITVEWQWNGQPAENYKNTQPIMDTDGSYFVYSKLNVQKSNWEAGNTFTCSVLHEGLHNHHTEKSLSHSPGL
modifications: non-mammalian (insect, Sf9) N-glycosylation at position 297 (EU numbering), without sialic acid
notes: Expressed from the pFastBacHTa-gp64 vector in Sf9 cells and purified from the supernatant by Protein A, about 26 kDa on SDS-PAGE; also called mouse Fc with three mutations
B2: Seq3-Sf9 (other)
chain: B1 chain with A115L, I117E
modifications: non-mammalian (insect, Sf9) N-glycosylation at position 297 (EU numbering), without sialic acid
notes: also called mouse Fc with five mutations

Target: T1, FcγRIIA protein
Assay: BLI, multi-concentration (5000-312.5 nM of Fc variant)
Description: The Seq2-Sf9 and Seq3-Sf9 are identified using Coomassie Brilliant Blue stained SDS-PAGE gel, with BSA as a control protein. The arrows indicate the positions of Seq2-Sf9 and Seq3-Sf9, and it can be determined that the purified protein is obtained with a molecular weight of about 26 kDa. […] The curves shown from bottom to top indicate that the concentrations of the Seq2-Sf9 and Seq3-Sf9 proteins […] in sequence.

Row | Binder | Kd [nM]
1 | B1 | 789
2 | B2 | 450
